Experimental findings from the Human Domainome abundance scans (Beltran et al. 2025) are described below.

The chains are these.
B1: PDZ and LIM domain protein 2, residues 284 to 339; numbered along this chain, Q96JY6 (parent)
chain: HTCEKCSTSIANQAVRIQEGRYRHPGCYTCADCGLNLKMRGHFWVGDELYCEKHAR

± gives the uncertainty stated by the source.

Variants of B1 are the subject of this series. Kind of series: abundance fitness (aPCA) (normalised: wild type 0, dead -1); higher = more abundant; growth selection in yeast, the domain comes from the species named. As to conditions: Homo sapiens.
Turning to HTCEKCSTSIANQAVRIQEGRYRHPGCYLCADCGLNLKMRGHFWVGDELYCEKHAR [T29L], the abundance fitness is -0.117 ± 0.081.

With HTCEKCSTSIANQAVRIQEGRYRHPGCYTCADCGLNLKMRGHFWVGDELYSEKHAR [C51S], the abundance fitness is -0.609 ± 0.12.

As to HTCEKCSTSIANQAVRIQEGRYRHPGCYTCADCGLNLKMRGDFWVGDELYCEKHAR [H42D], the abundance fitness was found to be 0.078 ± 0.076.

For the variant HTCEKCSTSIANQAVRIQEGRYRHPGCYTCADCGLNLKMRGQFWVGDELYCEKHAR [H42Q], the abundance fitness was -0.032 ± 0.11.

As to HTCEKCSTSIANQAVSIQEGRYRHPGCYTCADCGLNLKMRGHFWVGDELYCEKHAR [R16S], the abundance fitness amounted to 0.112 ± 0.098.

Consider HTCEKCSTSIANQAVRIQEGRYRHPGCYTCADCGLNLTMRGHFWVGDELYCEKHAR [K38T], for which the abundance fitness was -0.115 ± 0.12.

Take HTCEKCSTSIANQAVRIQEGRYRHPGCYTCADCGLNLFMRGHFWVGDELYCEKHAR [K38F]: the abundance fitness was -0.495 ± 0.17.

For HTCEKCSTSIANQAVRIQEGRYRHPGCYTCADCGLNLMMRGHFWVGDELYCEKHAR [K38M], the abundance fitness is -0.08 ± 0.098.

For HTCEKCSTSIANQAVRIQEGRYRHPGCYTCADCGLNLGMRGHFWVGDELYCEKHAR [K38G], the abundance fitness was determined as 0.103 ± 0.056.

As to HTCEKCSTSIANQATRIQEGRYRHPGCYTCADCGLNLKMRGHFWVGDELYCEKHAR [V15T], the abundance fitness is -0.018 ± 0.063.

Consider HTCEKCSTSIACQAVRIQEGRYRHPGCYTCADCGLNLKMRGHFWVGDELYCEKHAR [N12C], for which the abundance fitness is -0.135 ± 0.15.

HTCEKCSTSIASQAVRIQEGRYRHPGCYTCADCGLNLKMRGHFWVGDELYCEKHAR [N12S]: the abundance fitness is -0.028 ± 0.073.

With HTCEKCSTSIAWQAVRIQEGRYRHPGCYTCADCGLNLKMRGHFWVGDELYCEKHAR [N12W], the abundance fitness was -0.78 ± 0.15.

Turning to HTCEKCVTSIANQAVRIQEGRYRHPGCYTCADCGLNLKMRGHFWVGDELYCEKHAR [S7V], the abundance fitness is -0.16 ± 0.095.

As to HTCEKCMTSIANQAVRIQEGRYRHPGCYTCADCGLNLKMRGHFWVGDELYCEKHAR [S7M], the abundance fitness was -0.083 ± 0.14.

For HTCEKCCTSIANQAVRIQEGRYRHPGCYTCADCGLNLKMRGHFWVGDELYCEKHAR [S7C], the abundance fitness stood at 0.023 ± 0.095.

HTCEKCSTSIANQYVRIQEGRYRHPGCYTCADCGLNLKMRGHFWVGDELYCEKHAR [A14Y]: the abundance fitness is -0.209 ± 0.22.

On to HTCEKCSTSIANQEVRIQEGRYRHPGCYTCADCGLNLKMRGHFWVGDELYCEKHAR [A14E], for which the abundance fitness worked out at 0.143 ± 0.084.

Regarding HTCEKCSTSIANQAVRIQEGRYRHPGCYTCADCGLNLKMRGHWWVGDELYCEKHAR [F43W], the abundance fitness came to 0.099 ± 0.074.

HTCEKCSTSIANQAVRIQEGRYRHPGCYTCADCGLNLKMRGHEWVGDELYCEKHAR [F43E]: the abundance fitness was -0.057 ± 0.1.

Take HTCEKCSTAIANQAVRIQEGRYRHPGCYTCADCGLNLKMRGHFWVGDELYCEKHAR [S9A]: the abundance fitness was found to be 0.199 ± 0.08.

Turning to HTCEKCSTGIANQAVRIQEGRYRHPGCYTCADCGLNLKMRGHFWVGDELYCEKHAR [S9G], the abundance fitness was -0.08 ± 0.065.

As to HTCEKCSTSIANQAVRIQEGRYRHPCCYTCADCGLNLKMRGHFWVGDELYCEKHAR [G26C], the abundance fitness was found to be 0.006 ± 0.11.

On to HTCEKCSTSIANQAVRIQEGRYRHPPCYTCADCGLNLKMRGHFWVGDELYCEKHAR [G26P], for which the abundance fitness was -0.016 ± 0.082.

For HTCEKCSTSIANQAVRIQEGRYRHPWCYTCADCGLNLKMRGHFWVGDELYCEKHAR [G26W], the abundance fitness came out at 0.072 ± 0.1.

On to HTCEKCSTSIANQAVRIQEGRYRHPECYTCADCGLNLKMRGHFWVGDELYCEKHAR [G26E], for which the abundance fitness amounted to 0.277 ± 0.11.

Consider HTCEKCSTSCANQAVRIQEGRYRHPGCYTCADCGLNLKMRGHFWVGDELYCEKHAR [I10C], for which the abundance fitness was -0.062 ± 0.09.

For HTCEKCSTSIANPAVRIQEGRYRHPGCYTCADCGLNLKMRGHFWVGDELYCEKHAR [Q13P], the abundance fitness was -0.227 ± 0.13.

In the case of HTCEKCSTSIANLAVRIQEGRYRHPGCYTCADCGLNLKMRGHFWVGDELYCEKHAR [Q13L], the abundance fitness is -0.36 ± 0.099.

As to HTCEKCSTSIANQAVRIQEGRYRHPGCYTCADCGLNLKTRGHFWVGDELYCEKHAR [M39T], the abundance fitness turned out to be 0.173 ± 0.086.

Consider HTCEKCSTSIANQAVRIQEGRYRHPGCYTCADCGLNLKNRGHFWVGDELYCEKHAR [M39N], for which the abundance fitness stood at 0.095 ± 0.13.

As to HTCEKCSTSIANQAVRIQEGRYRHPGCYTCADCGLNLKCRGHFWVGDELYCEKHAR [M39C], the abundance fitness was -0.186 ± 0.17.

For the variant HTCEKCSTSIANQAVRIQEGRYRHPGCYTCADCGLNLKMRGHFWVGDELLCEKHAR [Y50L], the abundance fitness is -0.039 ± 0.084.

For the variant HMCEKCSTSIANQAVRIQEGRYRHPGCYTCADCGLNLKMRGHFWVGDELYCEKHAR [T2M], the abundance fitness is -0.51 ± 0.21.

Turning to HHCEKCSTSIANQAVRIQEGRYRHPGCYTCADCGLNLKMRGHFWVGDELYCEKHAR [T2H], the abundance fitness was found to be 0.144 ± 0.17.

As to HTCEKCSTSIANQAVRIQEGRYLHPGCYTCADCGLNLKMRGHFWVGDELYCEKHAR [R23L], the abundance fitness was -0.212 ± 0.062.

Turning to HTCEKCSTSIANQAVRIQEGRYFHPGCYTCADCGLNLKMRGHFWVGDELYCEKHAR [R23F], the abundance fitness is -0.391 ± 0.23.

Regarding HTCEKCSTSIANQAVRIQYGRYRHPGCYTCADCGLNLKMRGHFWVGDELYCEKHAR [E19Y], the abundance fitness is -0.549 ± 0.089.

Consider HTCEKCSTSIANQAVRIQAGRYRHPGCYTCADCGLNLKMRGHFWVGDELYCEKHAR [E19A], for which the abundance fitness is -0.165 ± 0.061.

Turning to HTCEKCSTSIANQAVRIQEGRYRHPGCYTCADCGLNLKMPGHFWVGDELYCEKHAR [R40P], the abundance fitness was 0.14 ± 0.13.

Consider HTCEKCSTSIANQAVRIQEGRYRHPGCYTCADCGLNLKMAGHFWVGDELYCEKHAR [R40A], for which the abundance fitness was determined as 0.041 ± 0.12.

Take HTCEKCSTSIANQAVRIQEGRYRHPGCYTCADCGLNLKMRGHFWEGDELYCEKHAR [V45E]: the abundance fitness amounted to 0.041 ± 0.083.

Take HTCEKCSTSIANQAVRIQEGRYRHPGCYTCADCGLNLKMRGHFWQGDELYCEKHAR [V45Q]: the abundance fitness was -0.092 ± 0.12.

With HTCEKCSTSIANQAVRIQEGRYRHCGCYTCADCGLNLKMRGHFWVGDELYCEKHAR [P25C], the abundance fitness is -0.546 ± 0.19.

Turning to HTCEKCSTSIANQAVRIQEGRYRHQGCYTCADCGLNLKMRGHFWVGDELYCEKHAR [P25Q], the abundance fitness stood at 0.035 ± 0.083.

HTCEKCSTSIANQAVRIQEGRYRHGGCYTCADCGLNLKMRGHFWVGDELYCEKHAR [P25G]: the abundance fitness was -0.053 ± 0.091.

For the variant HTCEKCSTSIANQAVRIQEGRYRHEGCYTCADCGLNLKMRGHFWVGDELYCEKHAR [P25E], the abundance fitness amounted to 0.402 ± 0.082.

Regarding HTCEKCSTSIANQAVRIQEGRYRHPGCYTCDDCGLNLKMRGHFWVGDELYCEKHAR [A31D], the abundance fitness is -0.175 ± 0.11.

Take HTCEKCSTSIANQAVRIQEGRYRHPGCYTCLDCGLNLKMRGHFWVGDELYCEKHAR [A31L]: the abundance fitness was 0.119 ± 0.079.
